IntAct's records for PubMed 19264842

Biological target: T1, plcg1_human PLCG1 (UniProt P19174)
T1 sequence: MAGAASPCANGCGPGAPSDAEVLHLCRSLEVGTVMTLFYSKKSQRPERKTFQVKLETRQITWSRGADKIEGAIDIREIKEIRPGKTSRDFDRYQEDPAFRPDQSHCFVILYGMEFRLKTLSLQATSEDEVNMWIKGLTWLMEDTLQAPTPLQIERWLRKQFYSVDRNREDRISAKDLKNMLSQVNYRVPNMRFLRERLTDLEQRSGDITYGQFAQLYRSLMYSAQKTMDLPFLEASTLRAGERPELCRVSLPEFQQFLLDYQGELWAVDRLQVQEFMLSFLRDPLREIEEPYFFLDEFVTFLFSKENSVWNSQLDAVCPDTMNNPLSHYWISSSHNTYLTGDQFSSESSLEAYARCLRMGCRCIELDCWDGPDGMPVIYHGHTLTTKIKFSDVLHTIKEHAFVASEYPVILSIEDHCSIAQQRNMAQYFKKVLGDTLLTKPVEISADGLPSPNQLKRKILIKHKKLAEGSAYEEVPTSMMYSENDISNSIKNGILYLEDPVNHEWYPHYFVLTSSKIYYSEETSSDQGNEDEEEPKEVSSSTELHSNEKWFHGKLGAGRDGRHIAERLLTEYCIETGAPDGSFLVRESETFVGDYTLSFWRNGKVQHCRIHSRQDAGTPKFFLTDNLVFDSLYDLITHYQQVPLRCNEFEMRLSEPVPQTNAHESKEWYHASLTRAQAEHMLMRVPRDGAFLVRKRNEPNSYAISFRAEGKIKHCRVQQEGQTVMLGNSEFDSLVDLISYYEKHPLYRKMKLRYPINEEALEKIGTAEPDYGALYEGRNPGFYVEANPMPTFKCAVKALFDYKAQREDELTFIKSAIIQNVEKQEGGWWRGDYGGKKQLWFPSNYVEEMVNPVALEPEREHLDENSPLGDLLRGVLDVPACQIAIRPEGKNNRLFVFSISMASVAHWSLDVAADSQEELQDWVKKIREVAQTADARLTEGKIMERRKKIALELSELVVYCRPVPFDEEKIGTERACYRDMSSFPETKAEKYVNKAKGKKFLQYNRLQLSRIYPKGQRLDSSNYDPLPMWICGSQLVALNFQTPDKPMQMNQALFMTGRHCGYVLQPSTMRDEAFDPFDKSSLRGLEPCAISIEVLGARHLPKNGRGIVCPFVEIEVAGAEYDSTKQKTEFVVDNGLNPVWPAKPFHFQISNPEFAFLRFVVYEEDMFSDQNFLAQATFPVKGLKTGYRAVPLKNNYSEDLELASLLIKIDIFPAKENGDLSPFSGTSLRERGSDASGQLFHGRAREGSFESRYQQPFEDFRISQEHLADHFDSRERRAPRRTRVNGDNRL

## Ras-related C3 botulinum toxin substrate 1 (Homo sapiens) (from UniProt P63000) P106A
  effect of a mutation on the interaction: disrupting interaction

## Ras-related C3 botulinum toxin substrate 1 (Homo sapiens) (from UniProt P63000) P109A
  effect of a mutation on the interaction: disrupting interaction
